The source of these data is publication PMC5412928, “Engineered ligand‐based VEGFR antagonists with increased receptor binding affinity more effectively inhibit angiogenesis” (Bioengineering & Translational Medicine, 2017).

Positions count from the first letter of the chain named.

For one test, the target named is T1, VEGFR2 on HUVECs (human (endogenous in HUVECs), UniProt P35968 20-1356).
T1 construct: VEGFR2, endogenous on HUVECs; HUVECs also bear αvβ3 integrin; source: endogenous, on human umbilical vein endothelial cells (HUVECs)
T1 sequence (P35968 20-1356): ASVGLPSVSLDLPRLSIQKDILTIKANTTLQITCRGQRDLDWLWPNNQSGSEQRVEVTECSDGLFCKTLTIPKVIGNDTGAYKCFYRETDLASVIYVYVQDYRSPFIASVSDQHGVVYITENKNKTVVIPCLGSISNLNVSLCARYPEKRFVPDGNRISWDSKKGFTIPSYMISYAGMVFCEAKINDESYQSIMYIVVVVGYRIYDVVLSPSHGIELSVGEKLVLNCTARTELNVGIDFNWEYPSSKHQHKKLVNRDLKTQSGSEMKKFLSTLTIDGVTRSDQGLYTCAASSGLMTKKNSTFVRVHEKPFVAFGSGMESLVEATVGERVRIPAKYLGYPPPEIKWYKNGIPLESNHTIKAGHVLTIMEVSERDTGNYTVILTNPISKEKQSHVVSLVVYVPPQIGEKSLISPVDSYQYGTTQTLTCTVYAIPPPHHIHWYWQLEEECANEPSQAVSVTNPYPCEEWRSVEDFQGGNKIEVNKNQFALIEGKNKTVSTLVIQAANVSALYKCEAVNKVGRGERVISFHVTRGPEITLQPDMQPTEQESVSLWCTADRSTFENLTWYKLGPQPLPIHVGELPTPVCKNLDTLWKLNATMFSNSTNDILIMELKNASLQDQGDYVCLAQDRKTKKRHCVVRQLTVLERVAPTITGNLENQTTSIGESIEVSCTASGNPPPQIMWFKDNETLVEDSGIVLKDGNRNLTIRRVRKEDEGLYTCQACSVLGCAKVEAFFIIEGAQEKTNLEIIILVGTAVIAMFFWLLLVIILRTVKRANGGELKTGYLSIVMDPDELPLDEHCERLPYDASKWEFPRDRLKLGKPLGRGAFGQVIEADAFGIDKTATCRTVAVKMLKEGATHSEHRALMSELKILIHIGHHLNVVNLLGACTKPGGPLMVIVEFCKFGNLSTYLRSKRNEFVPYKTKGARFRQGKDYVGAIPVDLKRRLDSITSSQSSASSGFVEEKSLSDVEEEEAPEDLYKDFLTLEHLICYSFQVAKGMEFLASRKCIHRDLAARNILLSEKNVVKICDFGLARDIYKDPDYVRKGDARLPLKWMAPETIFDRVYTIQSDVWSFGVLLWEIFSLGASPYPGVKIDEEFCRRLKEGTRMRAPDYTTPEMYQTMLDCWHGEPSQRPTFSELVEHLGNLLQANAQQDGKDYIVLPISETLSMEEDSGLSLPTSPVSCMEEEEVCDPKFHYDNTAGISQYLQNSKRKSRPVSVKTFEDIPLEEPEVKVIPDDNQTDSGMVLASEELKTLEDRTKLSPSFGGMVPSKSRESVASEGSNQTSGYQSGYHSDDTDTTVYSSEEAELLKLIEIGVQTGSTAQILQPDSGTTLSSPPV
As to the kind of experiment: flow cytometry on cells; apparent; soluble FLAG-tagged scVEGF variants titrated on 50,000 serum-starved HUVECs (bear VEGFR2 and αvβ3 integrin) in integrin binding buffer, 4°C, 4–6 hr; phycoerythrin anti-FLAG antibody; sigmoidal fit. The note with it: one partner purified. (In general: Flow cytometry measures light scatter and fluorescence of single cells or particles in a stream.)

For test [1], the target named is T2, human VEGFR2 on PAE/KDR cells (human, UniProt P35968 20-1356).
T2 construct: VEGFR2 (KDR), human, stably expressed on porcine aortic endothelial cells; also called vascular endothelial growth factor receptor 2; source: porcine aortic endothelial (PAE) cells stably transfected to express human VEGFR2 (PAE/KDR cells), on cells
T2 sequence (P35968 20-1356): as above
As to the kind of experiment: flow cytometry on cells; soluble FLAG-tagged scVEGF variants titrated on 50,000 PAE/KDR cells in integrin binding buffer (20 mM Tris pH 7.5, 100 mM NaCl, 1 mM MgCl2, 1 mM MnCl2, 2 mM CaCl2, 1 mg/ml BSA), 4°C, 4–6 hr; phycoerythrin anti-FLAG antibody; sigmoidal fit of mean fluorescence. The conditions noted are these: one partner purified.

B1: scVEGFmut (ligand)
chain: APMAEGGGQNHHEVVKAMDVYQRSYCHPIETLVDIFQEYPDEIEYIFKPSCVPLMRCGGCCNDAGLECVPTEESNITMQIMRIKPHQGQHIGEMSFLQHNKCECRPKKDGSTSGSGKSSEGKGAPMAEGGGQNHHEVVKFMDVYQRSYCHPIETLVDIFQEYPDEIEYAFKPSCVPLMRCGGCCNDEGLECVPTEESNITMQIMRAKPHQGQHIGEMSFLQHNKCECRPKKD
As to B1, the “fold tighter binding of scVEGFmE7I than of scVEGFmut” value with VEGFR2 on HUVECs is ≥ 330 fold. This molecule also registered a Kd in test [1] of 27 nM.

B2: scVEGFwt (ligand)
chain: B1 chain with A17F, A64E, A169I, A206I
For the molecule B2, in the test with VEGFR2 on HUVECs, the Kd was 3.8 nM.
